Measurements: article doi:10.1101/2023.08.16.553618, “Structure of C. elegans TMC-2 complex suggests roles of lipid-mediated subunit contacts in mechanosensory transduction” (bioRxiv, 2023)

Molecular target: the molecule itself
Test: cryo-EM structure; single particle cryo-EM of the native TMC-2 complex isolated from worms in GDN with 1 mM CaCl2; cis-dimeric particles; 2 nm carbon grids

B1: C. elegans TMC-2 (transmembrane channel-like protein 2), native, with C-terminal mVenus-3C-3xFLAG (natural protein, UniProt Q11069 1-1203, looked up)
chain: MPKSGAHQPLVRHDTDDGGETGQSVKSLADVSEEEIDSRMSRRSSVIADLLSLFRRSSSVLVRPHTRLGNPNFDDDDDEFDEEDDKEASKDRILKKIQQKKEIIQKLRGQPWYMKRKRRTLKVAQKHLQQQEAKVSKARLYKAEAGRRLTQASRWLDNLKIYLIPWEAKIRKIESHFGSVVSSYFTFHRWVLGVNITITFIMCMFVVIPEWLADSRTQFGDDRYNKTKAIKVMPPAVRARADELSTVWDFGGYFQYSLLFYGFYSKETFFGETIKYRVPVAYFFCNIFILGFSLFIILRKMAANNRRGTLSSGKTQQYLFNWKAFTGWDYTIGNPETAGNVYMANVIKFREAINDDKQKPSDKHPWIRFVARVLTNLFICAMYVFSIWAIMQCGTLKGEHFFAQNATAITISLITLVFPNIFDLLGKIEKLHPRNALRFQLGRVLVLYILNYYTLIYSLMLQLEHLQKEKNASDNPISALGHPGDAIGRTIRETVLPRYPVDNNPHTYYSYAPVTTTPIPATSSWTTVLPDFGPFGVYNPKASVTKDDTVFSSPVVETHMFGPNSDWNETTVNAASPTGATTRASLRMSQGGLCWETIIGQEITKLVTMDLYMTVASIFLIDFLRGLACRYLNLYWPWDLERTFPEYGEFKVAENVLHLVNNQGMIWLGLFFVPLLPMLNNIKLIILMYIRGWAAMTCNVPASQIFRASRSSNFFFALLILFLFLCTLPVGFVIASKTPSKSCGPFGNQSFFYSVITDVLHENLDKTLVNGIKYSLSPGIIIPVLVLLSLVIYFLIAMVTGLSQANQDLSFQLMVERTEEKKKIFELAGGKKKKSKDNTFGKQKPKQLLPPPTKGVSSDDDSQHNRSTAKSVSGRQFVPSLGSVSEVDHSTGEEQSSDSESTTSSLPPKLSLRQRFLVCIGWADPNKYGRHDDIEMEEGGGRLRELSTGSETDSDDEDSEKSNRDMSYRTAIQSFDQNSQSASASSSKSTTTAPSNSEMRIEITENPLHTYITPLRIEKKSSASSSSSSHQPSSSIEKQAARRLLQPISTTHNIRYGVATVENSSQDPTRPPSTDDSLGDPALHEPLWANLNPHSSYTSAMMSPIMNEVMSNDETTDDEKGRLIPDRPPIPHSPRELKRLKREKDQQSESGSKPSTPRPPRFRISMSPPRKPPSEKNDSDSSNRKYEMRVEKSPKKPKKSDND
modifications: N-glycans at N225 and N748 (density features)
notes: TMC-2, C. elegans, Wormbase B0416.1a; tag inserted prior to the stop codon of the endogenous gene; A 3C (PreScission) site lies between mVenus and 3xFLAG; The complex was captured by the 3xFLAG tag and eluted by 3C cleavage, so the sample for SEC, mass spectrometry and cryo-EM has mVenus but no 3xFLAG; Two copies stand in the cis-dimeric complex; Not modelled in 8TKP: M1-A88, A472-T582, …
With B1 the “stoichiometry N” value was 2.
